Data on nine sequences can be found in the DeepSol protein solubility set.

The data set can be described thus: soluble on expression in E. coli; label from the status in PepcDB or PDB records.
As for “MSLSKTLSMLALLPFAAQVFAAPAEFWYSHGGATGSAIADLCRSFNAQREDGDRLHCIRQGSYEQTLQKTVAAYRAGIGPALVEIYDVATPDMLLGGATLPVEAIMAGHQRAYSDDTFLPALRRYYSDDHGALAAQPFAASTAVLYTHRNALAAAGISEPPATWEAFATALRALKKNGHACPVVSEFSPWIWLEQTSAAQGTEVAVRAAGTERYQFDKGAHLRLMNDLAQWTAEGLVVHEDSTRSGQQALAFATDDCAMLIDSTGAWNIVHSTLKSDIDVTALPIYANTQRRTNAPGGSSLWVMRGHAARDYRLVSEFLAFVLQPDNQLVFSARTGYLPVTQAAAARLQSAGREPSAVMVGLAALHDIDGQPSKPLRCGFITLMRLVWSQEMENALAGRQSVEHALRQTTLRANELLSLFQQMHQAQASNESDGATEGHHHHHH”, the “soluble on expression in E. coli” value is listed as “soluble”.

With “MTAYGFIIPVFNHPHYLDQLVETLSRYQLPMILVNDGSNEECSTKLRVLDQSYTQVHLVEHAYNQGKGQAVITGLHYADQLGLSHALQIDCDGQHQWADVEQFLQLSQQYPEKVIIGQPIFDASIPKKRLYGRYLTHVWVWINSLSFEIKDSMCGFRVYPLGPTLKVIKQAKFQPRMGFDSEILVRLKWENLAFINVPTAVIYPEHGILEHHHHHH”, the “soluble on expression in E. coli” value is recorded as “not soluble”.

On to “MIDDIRYLIVFAKIAETGSVSGGAEALGLSAATASLHLSRLERNLGRALLYRNSRKLSLTQDGTQLLDTARSMLELYEKGFIEFRQRAVSTRNSLRISMPAVFVNGDFTRHLAAFIEEHPDLDLGIACDDSRHDIIGDGIDIAFRIGDLPDSSLKARHLFLLPRQVVAAPAFLARHAPLEHPRDLQRLEWIGLGMRPDSRLFRHARDDEEVRVDYTPRVRVDSVEASCRLARLGVGLAAPPTYLSDEPIRRGELRAVLPEWRLEPLKVYAVWPPNVPASSIAYTLINRLYEAFNPG”, for which the “soluble on expression in E. coli” value is “not soluble”.

With “MQPSFRIVADGTDVTQRLNDRLLKLTLLDKPGMESDSLTLRIDDRDGQVALPRRGAVLEVHLGYAGEPLMRMGRFTVDTLQWAGPPDCLTVTAKAGDMRGSGKTIRSGGWEGTTLAQVCRDVGARNGWRVECPLQVAIARVDQVNESDYHFVTRLARQYDCTAKLAEGMLMVLPRQSGQSATGRRIEPLVLGRADVGSFDVTFDDRSLMRTVKTRYQLPGSGEVKSVELKNPKAPATAMGEHVDRHLYTSRGEAEQAAKARLASFSRSSASVRLELPGRGDLFAERSLLLQGFKAGIDGEFLIDSVEHTYSSSGWTTVVQCNGGRGGKG”, the “soluble on expression in E. coli” value is “not soluble”.

Consider “MSLSPLSKLDKIAVSGNKQLTENEVRKESGLEIGEFVIGISNGKTEDTLKKNTLIKDATVSKEGINDVQINITEFKTIGYQQQDGKYYDVLESGIMLTDQPRQFPIGNDLLFQNFKNGKTLEKMVAQINKLPKDVVSSISEVIYSPTKTDKNHIKLYMNDGNQVSADISTFAEKMQHYPAIVAQLAKGQKGVIDIEVGSYFQSYYQQNAEKKAAEEAAKEKKETNEGHHHHHH”, for which the “soluble on expression in E. coli” value is recorded as “soluble”.

As to “AHHHHHHGSTLRLLNDFVKDKLFGETVLVENNSYLGVETLLFVIFKLGEELNVPILVEDVLDTFSIYKKHLEMLGLKTPENIKILKIGGSEEGKGVVKRIPFDFDISRYLLEYGKSFEDVSPKEKFIDLVFGLDRFFILIDNLIDTAKLLNSIKNYIHNENRTAFYFIEANLLKATKPIILYYLEDIATSVVRINQEKNILTFEPVKDIWSVRNKINQISISFGDLFRETL”, the “soluble on expression in E. coli” value is “not soluble”.

Turning to “MGSDKIHHHHHHVQVVSISSLKGGVGKTSVTTGLASAALAAGIPTLVVDLDPHADASTALGVQPDEQLDIGRMLKSPRRARLSQNVVTSGWVARENYNGARPAVLDVAVGSAYTGIYDRPDLGRRDLRRLSAVLAGTDKYQLILVDCPPSLNGLTRMAWSASDKVALVAEPGLFSVAGTERTMRAIQLFRQEFAPNLSPAGIIANRVRSGSSEHAFRLAEMQSMFGELLLTPYIPEQANWQQIQGAAHSVHHWPGDSAKNAASLFNTLLDNLMASNDAGSAGALRERSLR”, the “soluble on expression in E. coli” value is on record as “not soluble”.

With “METAKEMTRESLPIKCLEAVILGIYLTNGQPSIERFPISFKTYFSGNYFHHVVLGIYCNGRYGSLGMSRRAELMDKPLTFRTLSDLIFDFEDSYKKYLHTVKKVKIGLYVPHEPHSFQPIEWKQLVLNVSKMLRADIRKELEKYARDMRMKGLCSH”, the “soluble on expression in E. coli” value was “soluble”.

For “GSHMTMSRRNTDAITIHSILDWIEDNLESPLSLEKVSERSGYSKWHLQRMFKKETGHSLGQYIRSRKMTEIAQKLKESNEPILYLAERYGFESQQTLTRTFKNYFDVPPHKYRMTNMQGESRFLHPLNHYNS”, the “soluble on expression in E. coli” value is “soluble”.
